Measurements taken from patent publication US20140302035A1 (MERRIMACK PHARMACEUTICALS, published 2014).

What was measured:
[1] = biological target: T1, Human EpCAM-Fc-his tagged (human); experiment: BLI (ForteBio Octet), antibody loaded on Protein A tips, recombinant polyhistidine-tagged EpCAM-Fc in solution, 1:1 model
T1 construct: also called Recombinant polyhistidine-tagged EpCAM-Fc; recombinant EpCAM
Experimental: For Octet analysis, all reagents and samples are brought to room temperature. Protein A sensor tips (ForteBio, #18-5010) are hydrated for 10 minutes in 1×PBS. Assay steps include: 1-2 minutes of equilibration in 1×PBS, 4 minutes of antibody loading (concentration of 50 μg/ml in 1×PBS), 1-2 minutes of baseline stabilization, 4 minutes of antibody:antigen association, and 4 minutes of antibody:antigen dissociation. 1×PBS is used as the matrix throughout. Data are analyzed with Octet Data Analysis software, processed, and fit to a 1:1 binding model to determine kinetic parameters (Kd, kₒₙ and kdiss).
Table A-2 describes approximate EpCAM binding affinity and dissociation rate as determined for Ab#1, Ab#2, Ab#3, Ab#4, Ab#5, Ab#6, Ab#7, Ab#8, Ab#9, Ab#10, Ab#11, Ab#12, and Ab#13.

[2] = biological target: T2, cMet-his (Homo sapiens (Human), UniProt P08581 25-933); experiment: BLI (ForteBio Octet), antibody loaded on Protein A tips, his tagged cMET in solution, 1:1 model
T2 construct: also called his tagged cMET; Recombinant polyhistidine-tagged c-Met
Experimental: Protocol: All reagents are equilibrated and samples are brought to room temperature. Protein A sensor tips (Fortebio, #18-5010) are hydrated for 10 min in 1×PBS. Kinetic assays are run using the Octet software and procedure per manufacturer's instruction. Assay steps typically include: 1-2 min of equilibration in 1×PBS, 4 min of antibody loading (conc: 50 μg/mL in 1×PBS), 1-2 min of baseline stabilization, 4 min of antibody:antigen association, and 4 min of antibody:antigen dissociation. 1×PBS is used as the matrix throughout. Data are analyzed with Octet Data Analysis software, processed, and fit to the curve using 1:1 binding model to determine kinetic parameters (Kₐ, Kₒₙ and Koff)

T1 sequence (chain, as listed by the source): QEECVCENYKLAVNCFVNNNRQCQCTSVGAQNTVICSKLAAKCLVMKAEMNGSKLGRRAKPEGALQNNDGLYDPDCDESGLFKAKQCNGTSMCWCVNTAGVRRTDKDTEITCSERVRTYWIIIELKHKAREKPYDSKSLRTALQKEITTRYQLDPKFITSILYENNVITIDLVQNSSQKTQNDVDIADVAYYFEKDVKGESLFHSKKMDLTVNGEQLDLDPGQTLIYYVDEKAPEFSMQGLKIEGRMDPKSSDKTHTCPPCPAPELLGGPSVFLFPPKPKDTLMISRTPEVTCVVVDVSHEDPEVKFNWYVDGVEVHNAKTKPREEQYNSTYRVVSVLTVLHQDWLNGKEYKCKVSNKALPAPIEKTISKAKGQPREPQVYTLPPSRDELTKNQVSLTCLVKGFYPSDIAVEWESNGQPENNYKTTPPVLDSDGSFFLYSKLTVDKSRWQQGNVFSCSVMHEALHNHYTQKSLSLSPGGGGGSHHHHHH

Row | Kd [1] | koff [1] | Kd [2] | Binder
1 | 4.57 nM | 0.000409 s⁻¹ |  | Ab#11 (bispecific antibody, human IgG1, kappa, Anti-c-Met Fab / tandem Fc / anti-EpCAM scFv TFcBA; also called Antibody #11) heavy: QLQLQESGPGLVKPSETLSLTCTVSGGSISSSVYYWSWIRQPPGKGLEWIGVIYPSGNTYYSPSLKSRVTISVDTSKNQFSLKLSSVTAADTAVYYCARTIYDLFDIWGQGTMVTVSSASTKGPSVFPLAPSSKSTSGGTAALGCLVKDYFPEPVTVSWNSGALTSGVHTFPAVLQSSGLYSLSSVVTVPSSSLGTQTYICNVNHKPSNTKVDKKVEPKSCDKTHTCPSCPAPEFLGGPSVFLFPPKPKDTLMISRTPEVTCVVVDVSQEDPEVQFNWYVDGVEVHNAKTKPREEQFNSKYRVVSVLTVLHQDWLNGKEYKCKVSNKGLPSSIEKTISKAKGQPREPQVYTLPPSREEMTKNQVSLSCAVKGFYPSDIAVEWESNGQPENNYKTTPPVLDSDGSFFLVSKLTVDKSRWQQGNVFSCSVMHEALHNHYTQKSLSLSKSCDKTGGGGSGGGGSGGGGSGGGGSGGGGSGGGGSGGGGSGGGGSCPSCPAPEFLGGPSVFLFPPKPKDTLMISRTPEVTCVVVDVSQEDPEVQFNWYVDGVEVHNAKTKPREEQFNSDYRVVSVLTVLHQDWLNGKEYKCKVSNKGLPSSIEKTISKAKGQPREPQVYTLPPSREEMTKNQVSLWCLVKGFYPSDIAVEWESNGQPENNYKTTPPVLDSDGSFFLYSKLTVDKSRWQQGNVFSCSVMHEALHNHYTQKSLSLSGECGGGGSGGGGSDIVMTQSPSSLSASVGDKATITCRSTKSLLHSNGITYLYWYLQKPGKAPKLLIYQMSNLASGVPDRFSSSGSGTEFTLTISSVQPEDEGTYYCAQNLEIPRTFGQGTKLEIKRTGGGGSGGGGSGGGGSGGGGSGQVQLQQSGGGLVKPGESVKISCAASGYTFTNYGMNWVKQAPGKGLKWMGWINTYTGESTYADDFKGRFTFSLETSASAAYLQINSLRPEDTAVYFCARFAIKGDYWGQGTTVTVSS light: DIQMTQSPSSVSASVGDRVTITCRASQGISSWLAWYQQKPGKAPKLLIYAASSLQSGVPSRFSGSGSGTDFTLTISSLQPEDFATYYCLQANSFPPTFGGGTKVEIKRTVAAPSVFIFPPSDEQLKSGTASVVCLLNNFYPREAKVQWKVDNALQSGNSQESVTEQDSKDSTYSLSSTLTLSKADYEKHKVYACEVTHQGLSSPVTKSFNRGEC
2 | 24.5 nM | 0.00166 s⁻¹ |  | Ab#12 (bispecific antibody, Anti-c-Met Fab / tandem Fc / anti-EpCAM scFv TFcBA; also called Antibody #12) heavy: QLQLQESGPGLVKPSETLSLTCTVSGGSISSSVYYWSWIRQPPGKGLEWIGVIYPSGNTYYSPSLKSRVTISVDTSKNQFSLKLSSVTAADTAVYYCARTIYDLFDIWGQGTMVTVSSASTKGPSVFPLAPSSKSTSGGTAALGCLVKDYFPEPVTVSWNSGALTSGVHTFPAVLQSSGLYSLSSVVTVPSSSLGTQTYICNVNHKPSNTKVDKKVEPKSCDKTHTCPSCPAPEFLGGPSVFLFPPKPKDTLMISRTPEVTCVVVDVSQEDPEVQFNWYVDGVEVHNAKTKPREEQFNSKYRVVSVLTVLHQDWLNGKEYKCKVSNKGLPSSIEKTISKAKGQPREPQVYTLPPSREEMTKNQVSLSCAVKGFYPSDIAVEWESNGQPENNYKTTPPVLDSDGSFFLVSKLTVDKSRWQQGNVFSCSVMHEALHNHYTQKSLSLSKSCDKTGGGGSGGGGSGGGGSGGGGSGGGGSGGGGSGGGGSGGGGSCPSCPAPEFLGGPSVFLFPPKPKDTLMISRTPEVTCVVVDVSQEDPEVQFNWYVDGVEVHNAKTKPREEQFNSDYRVVSVLTVLHQDWLNGKEYKCKVSNKGLPSSIEKTISKAKGQPREPQVYTLPPSREEMTKNQVSLWCLVKGFYPSDIAVEWESNGQPENNYKTTPPVLDSDGSFFLYSKLTVDKSRWQQGNVFSCSVMHEALHNHYTQKSLSLSGECGGGGSGGGGSDIVMTQSPSSLSASVGDKATITCRSTKSLLHSDGITYLYWYLQKPGKAPKLLIYQLSNLASGVPDRFSSSGSGTEFTLTISSVQPEDEGTYYCAQNLEIPRTFGQGTKLEIKRTGGGGSGGGGSGGGGSGGGGSGQVQLQQSGGGLVKPGESVKISCAASGYTFTNYGMNWVKQAPGKGLKWMGWINTYTGESTYADDFKGRFTFSLETSASAAYLQINSLRPEDTAVYFCARFAIKGDYWGQGTTVTVSS light: DIQMTQSPSSVSASVGDRVTITCRASQGISSWLAWYQQKPGKAPKLLIYAASSLQSGVPSRFSGSGSGTDFTLTISSLQPEDFATYYCLQANSFPPTFGGGTKVEIKRTVAAPSVFIFPPSDEQLKSGTASVVCLLNNFYPREAKVQWKVDNALQSGNSQESVTEQDSKDSTYSLSSTLTLSKADYEKHKVYACEVTHQGLSSPVTKSFNRGEC
3 |  |  | 1.3 nM | Onartuzumab-23E (antibody, Monovalent tandem Fc antibody: onartuzumab anti-c-Met Fab on IgG1 TFc 23E) heavy: EVQLVESGGGLVQPGGSLRLSCAASGYTFTSYWLHWVRQAPGKGLEWVGMIDPSNSDTRFNPNFKDRFTISADTSKNTAYLQMNSLRAEDTAVYYCATYRSYVTPLDYWGQGTLVTVSSASTKGPSVFPLAPSSKSTSGGTAALGCLVKDYFPEPVTVSWNSGALTSGVHTFPAVLQSSGLYSLSSVVTVPSSSLGTQTYICNVNHKPSNTKVDKKVEPKSCDKTHTCPPCPAPELLGGPSVFLFPPKPKDTLMISRTPEVTCVVVDVSHEDPEVKFNWYVDGVEVHNAKTKPREEQYQSTYRVVSVLTVLHQDWLNGKEYKCKVSNKALPAPIEKTISKAKGQPREPQVYTLPPSREEMTKNQVSLSCAVKGFYPSDIAVEWESNGQPENNYKTTPPVLDSDGSFFLVSKLTVDKSRWQQGNVFSCSVMHEALHNHYTQKSLSLSKSCDKTGGGGSGGGGSGGGGSGGGGSGGGGSGGGGSGGGGSGGGGSCPPCPAPELLGGPSVFLFPPKPKDTLMISRTPEVTCVVVDVSHEDPEVKFNWYVDGVEVHNAKTKPREEQYQSTYRVVSVLTVLHQDWLNGKEYKCKVSNKALPAPIEKTISKAKGQPREPQVYTLPPSREEMTKNQVSLWCLVKGFYPSDIAVEWESNGQPENNYKTTPPVLDSDGSFFLYSKLTVDKSRWQQGNVFSCSVMHEALHNHYTQKSLSLSGEC light: DIQMTQSPSSLSASVGDRVTITCKSSQSLLYTSSQKNYLAWYQQKPGKAPKLLIYWASTRESGVPSRFSGSGSGTDFTLTISSLQPEDFATYYCQQYYAYPWTFGQGTKVEIKRTVAAPSVFIFPPSDEQLKSGTASVVCLLNNFYPREAKVQWKVDNALQSGNSQESVTEQDSKDSTYSLSSTLTLSKADYEKHKVYACEVTHQGLSSPVTKSFNRGEC
4 |  |  | 1.25 nM | Onartuzumab-39EGY4 (antibody, Monovalent tandem Fc antibody: onartuzumab anti-c-Met Fab on IgG1/IgG4 hybrid TFc 39E glycoform 4) heavy: EVQLVESGGGLVQPGGSLRLSCAASGYTFTSYWLHWVRQAPGKGLEWVGMIDPSNSDTRFNPNFKDRFTISADTSKNTAYLQMNSLRAEDTAVYYCATYRSYVTPLDYWGQGTLVTVSSASTKGPSVFPLAPSSKSTSGGTAALGCLVKDYFPEPVTVSWNSGALTSGVHTFPAVLQSSGLYSLSSVVTVPSSSLGTQTYICNVNHKPSNTKVDKKVEPKSCDKTHTCPSCPAPEFLGGPSVFLFPPKPKDTLMISRTPEVTCVVVDVSQEDPEVQFNWYVDGVEVHNAKTKPREEQFNSKYRVVSVLTVLHQDWLNGKEYKCKVSNKGLPSSIEKTISKAKGQPREPQVYTLPPSREEMTKNQVSLSCAVKGFYPSDIAVEWESNGQPENNYKTTPPVLDSDGSFFLVSKLTVDKSRWQQGNVFSCSVMHEALHNHYTQKSLSLSKSCDKTGGGGSGGGGSGGGGSGGGGSGGGGSGGGGSGGGGSGGGGSCPSCPAPEFLGGPSVFLFPPKPKDTLMISRTPEVTCVVVDVSQEDPEVQFNWYVDGVEVHNAKTKPREEQFNSDYRVVSVLTVLHQDWLNGKEYKCKVSNKGLPSSIEKTISKAKGQPREPQVYTLPPSREEMTKNQVSLWCLVKGFYPSDIAVEWESNGQPENNYKTTPPVLDSDGSFFLYSKLTVDKSRWQQGNVFSCSVMHEALHNHYTQKSLSLSGEC light: DIQMTQSPSSLSASVGDRVTITCKSSQSLLYTSSQKNYLAWYQQKPGKAPKLLIYWASTRESGVPSRFSGSGSGTDFTLTISSLQPEDFATYYCQQYYAYPWTFGQGTKVEIKRTVAAPSVFIFPPSDEQLKSGTASVVCLLNNFYPREAKVQWKVDNALQSGNSQESVTEQDSKDSTYSLSSTLTLSKADYEKHKVYACEVTHQGLSSPVTKSFNRGEC
